Assay results as given in publication PMC3766439 (Clinical cancer research : an official journal of the …, 2013).

Target: Nus-Tag EGFRvIII ECD deletion mutant CT 292–346 (Homo sapiens, UniProt P00533)
Assay: ELISA

B1: D2C7 monoclonal antibody (antibody, V domains shown)
VH: EVHLQQSGPELEKPGASVKISCKASGYSFTGYNMNWVKQSNGKSLEWIGNIDPYYGDTDYDQKFKGKATLTADKSSNTVYMQLQSLTSEDSAVYYCARGAHRDYYAMDYWGQGTSVTVSS
VL: DIQMTQSPASLSASVGETVTITCRTSENIYIYLAWYQQKQGKSPQLLVYNAKTLAEGVPSRFSGSGSGTQFSLKINGLQPEDFGGYYCQQHYGTPYTFGGGTKLEKK
Does B1 bind?
Result: binds
